# Assay: label from the status in PepcDB records
row,Sequence,protein production
1,MKVLSYLKNFYLFLAIGAIMQASENMGSQHQKTDERVIYLAGGCFWGLEAYMERIYGVIDASSGYANGKTSSTNYEKLHESDHAESVKVIYDPKKISLDKLLRYYFKVVDPVSVNKQGNDVGRQYRTGIYYVNSADKEVIDHALKALQKEVKGKIAIEVEPLKNYVRAEEYHQDYLKKHPSGYCHIDLKKADEVIVDDDKYTKPSDEVLKKKLTKLQYEVTQNKHTEKPFENEYYNKEEEGIYVDITTGEPLFSSADKYDSGCGWPSFSKPINKDVVKYEDDESLNRKRIEVLSRIGKAHLGHVFNDGPKELGGLRYCINSAALRFIPLKDMEKEGYGEFIPYIKKGELKKYINDKKSH,failed
2,MKVLVIGNGGREHALAWKAAQSPLVETVFVAPGNAGTALEPALQNVAIGVTDIPALLDFAQNEKIDLTIVGPEAPLVKGVVDTFRAAGLKIFGPTAGAAQLEGSKAFTKDFLARHKIPTAEYQNFTEVEPALAYLREKGAPIVIKADGLAAGKGVIVAMTLEEAEAAVHDMLAGNAFGDAGHRIVIEEFLDGEEASFIVMVDGEHVLPMATSQDHKRVGDKDTGPNTGGMGAYSPAPVVTDDVHQRTMERIIWPTVKGMAAEGNTYTGFLYAGLMIDKQGNPKVIEFNCRFGDPETQPIMLRMKSDLVELCLAACESKLDEKTSEWDERASLGVVMAAGGYPGDYRTGDVIHGLPLEEVAGGKVFHAGTKLADDEQVVTNGGRVLCVTALGHTVAEAQKRAYALMTDIHWDDCFCRKDIGWRAIEREQN,failed
3,MKVNVSCSSVQTTIDILEENQGEDESILTLGQLRDRIATDNDVDVETMKLLHRGKFLQGADDVSLSTLNFKENDKIIVMGGKNALVDDAGFKMLMQYEKHNLSNLQKAYDLNLRDVADLERGFLEKPKQVEMGKKLEKKVKYFNEEAERHLETLDGMNIITETTPENQAKRNREKRKTLVNGIQTLLNQNDALLRRLQEYQSVLNGDIPE,not failed
4,MKVSDILTVAIRLEEEGERFYRELSEHFNGEIKKTFLELADQERIHAEIFRKMSDQENWDEVDSYLAGYAFYEVFPDTSEILRRKDLTLKEVLDIAISVEKDSIILYYELKDGLVNSDAQKTVKKIIDQEKEHLRKLLEMKREST,not failed
5,MKVSVEIITGTFIDTDVSEDATVKQMKEKIAVEVKLPVTRLILVIGDEETRRLVMEDEDDMMLRDLGVGEDSHIYLFFKHPDLVSKEERSKGEDDDDPMEEVSSEAESGRGNEEEVEKAKIDGEEEDQAMKDEEEDRDVKVEEDEEEKEKEKDGEAKYVKEEAREVEEADNKQEN,failed
6,MKVTDVRLRKIQTDGRMKALVSITLDEAFVIHDLRVIEGNSGLFVAMPSKRTPDGEFRDIAHPINSDMRQEIQDAVMKVYDETD,not failed
7,MKVVPEKNAVRILWGRERGTRAMGAQRLLQELVEDKTRWMKWEGKRVELPDSPRSTFLLAFSPDRTLLASTHVNHNIYITEVKTGKCVHSLIGHRRTPWCVTFHPTISGLIASGCLDGEVRIWDLHGGSESWFTDSNNAIASLAFHPTAQLLLIATANEIHFWDWSRREPFAVVKTASEMERVRLVRFDPLGHYLLTAIVNPSNQQGDDEPEIPIDGTELSHYRQRALLQSQPVRRTPLLHNFLHMLSSRSSGIQVGEQSTVQDSATPSPPPPPPQPSTERPRTSAYIRLRQRVSYPTTVECCQHPGILCLCSRCAGTRVPSLLPHQDSVPPASARATTPSFSFVQTEPFHPPEQASSTQQDQGLLNRPSAFSTVQSSTAGNTLRNLSLGPTRRSLGGPLSSHPSRYHRELAPGLTGSEWTRTVLTLNSRSEVESMPPPRTSASSVSLLSVLRQQEGGSQASVYTSATEGRGFPSSGLATESDGGNGSSQNNSGNIRHELQCDLRRFFLEYDRLQELDQSLSGETPQTQQAQEMLNNNIESERPGPSHQPTPHSSENNSNLSRGHLNRCRACHNLLTFNNDTLRWERTTPNYSSGEASSSWHVSTTFEGMPPSGNQLPPLERTEGQMPNSSRLELSSSASSQEERTVGVAFNQETGHWERIYTQSSRSGTVSQEALHQDMPEESSEEDSLRRRLLESSLISLSRYDGAGSREHPIYPDPARLSPAAYYAQRMIQYLSRRDSIRQRSMRYQQNRLRSSTSSSSSDNQGPSVEGTDLEFEDFEDNGDRSRHRAPRNARMSAPSLGRFVPRRFLLPEYLPYAGIFHERGQPGLATHSSVNRVLAGAVIGDGQSAVASNIANTTYRLQWWDFTKFDLPEISNASVNVLVQNCKIYNDASCDISADGQLLAAFIPSSQRGFPDEGILAVYSLAPHNLGEMLYTKRFGKG,failed
